Experimental findings from paper PMC11322411 are described below.

The target in the experiment is GRK2-phosphorylated FLAG-tagged SMOOTHENED (near-full-length mouse SMO, residues 64-674) (mouse) (UniProt P56726). The experiment is described as follows: pull-down; purified FLAG-SMO forms (18.2 uM) mixed with PKA-C (10 uM), captured on anti-FLAG M1 sepharose beads, 4°C 2 h; 20 mM HEPES pH 7.5, 150 mM NaCl, 3 mM CaCl2, 10 mM MgCl2, 1 mM ATP, 0.025% GDN, 1 uM SAG21k; eluted with FLAG peptide and EDTA; stain-free SDS-PAGE, densitometry.
Chain of UniProt P56726 (P56726 64-674): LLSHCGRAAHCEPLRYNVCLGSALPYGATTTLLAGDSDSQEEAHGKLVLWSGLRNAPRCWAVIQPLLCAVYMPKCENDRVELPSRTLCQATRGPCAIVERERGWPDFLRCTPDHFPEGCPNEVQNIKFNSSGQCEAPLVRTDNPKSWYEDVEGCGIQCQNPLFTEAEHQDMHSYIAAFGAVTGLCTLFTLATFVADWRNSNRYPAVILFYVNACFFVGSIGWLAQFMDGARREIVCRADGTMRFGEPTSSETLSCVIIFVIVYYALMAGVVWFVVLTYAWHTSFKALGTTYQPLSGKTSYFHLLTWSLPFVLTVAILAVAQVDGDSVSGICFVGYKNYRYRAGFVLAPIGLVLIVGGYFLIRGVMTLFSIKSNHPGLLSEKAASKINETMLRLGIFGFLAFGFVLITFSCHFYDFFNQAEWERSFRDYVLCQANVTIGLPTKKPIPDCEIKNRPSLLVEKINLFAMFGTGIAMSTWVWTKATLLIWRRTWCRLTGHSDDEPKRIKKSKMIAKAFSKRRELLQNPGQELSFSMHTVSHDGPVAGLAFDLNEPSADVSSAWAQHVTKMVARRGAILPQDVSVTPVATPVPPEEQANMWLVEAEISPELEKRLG

On to “protein kinase A catalytic subunit (PKA-C), mouse (from UniProt P05132 1-351) (enzyme)”, for which the PKA-C in the FLAG elution as percent of SMO turned out to be 25%.
